Source: paper PMC7010817

Molecular target: PPARα (UniProt P23204)
Test: Flag-JMJD3 co-IP, PPARα immunoblot
Conditions: reference: wild type, FGF21-treated; sites T1044

JMJD3 (KDM6B) (from UniProt Q5NCY0) T1044A, FGF21-treated
binding against the reference: weaker
